Positions count from the first letter of the chain named.
B1: Group 37 representative clone F083-311, Fab-cp3-type antibody (Fab, V domains shown)
VH: QVQLVQSGSEVKKPGSSVKVSCKASGGIFRTNAISYVRQAPGQGLEWMGGITAIFGTPNYAQKFQGRVTIIADESTSTVYMELGSLTSEDTAVYYCATSGTYYVSYFDSWGQGTLVTVSS
VL: DIVMTQSPGTLTLSPGERATLSCRASQSLYSSHLAWYQQKPGQPPRLLIYGASTRAPGTPDRFSGSGSGTDFTLTITALDPEDSAVYYCQQYGSSPITFGQGTRLEIK
B2: Group 63 representative clone F083-336, Fab-cp3-type antibody (Fab, V domains shown)
VH: QVQLQQSGAEVKQPGSSVKVSCKASGGIFRSNAISWVRQAPGQGLEWMGGIVALFGTANYAQKFQGRVTITADESTSTVYMELSSLRSEDTARYYCARNSGYHISGFYLDYWGQGTLVTVSS
VL: EIVLTQSPSSLSASVGDRVTITCRASQGISNYLAWYQQRPGKVPKLLIYTASTLLSGVPSRFSGGGSGTDYTLTISSLQPEDVATYYCQEYKSVPLTFGPGTKVEIK
B3: Group 44 representative clone F081-008, Fab-cp3-type antibody (Fab, V domains shown)
VH: QVQLVQSGAEVKKPGSSVKVSCKASGGTFSSFSTYTISWVRQAPGQGLEWMGRSIPLLGITNYAQKFQGRVTITADISTSTAYMELSSLRSEDTAVYYCARYQSSDYYNSEYFQHWGQGTLVTVSS
VL: EIVLTQSPGTLSLSLGERVTLSCRASQNVGTNYLAWYQQKPGQAPRLLIYGASSRATGVPDRFSGSGSGTDFTLTISRLAPEDFAVYYCQQYSSSPLTFGGGTKLEIK
B4: Group 39 representative clone F082-237, Fab-cp3-type antibody (Fab, V domains shown)
VH: QVQLVQSGAEVKKPGSSVKVSCKASGGIFNKYGISWVRQAPGQGLEWMGGILAIFGTTNYAQKFQGRVTISADESSTTVYMELSSLTSEDTAVYYCARGNTYYSSYFDQWGQGTLVTVSS
VL: QSVLTQPPSVSVAPGQTATITCGGDKIGTGPVHWYQQMPGRAPVLLIYASTHRPSRIPERFSGSKSDNTATLSISGVGVGDEADYYCQMWDSSSVHPIVFGGGTKLTVLS
B5: Group 54 representative clone F083-354, Fab-cp3-type antibody (Fab, V domains shown)
VH: B4 VH with A9S, K31S, S71T, E74D, T77K, N100S
VL: DIQMTQSPSSLSASVGDRVTITCRASQGIRNSLAWYQQKPGQVPKLLIYSATTLRSGVPYRFSGSGSGTDFTLTISGLQPEDVGTYFCHRYDSAPLTFGGGTRVALK
B6: Group 64 representative clone F083-301, Fab-cp3-type antibody (Fab, V domains shown)
VH: QVQLVQSGAEVKKPGSSVKVSCKASGGIFNSNAISWVRQAPGQGLEWMGGIIGIFGTANYAQKFQGRVTIAADQSTNTVFMELSSLTSEDTAVYFCARSRGYSFGYGTDYFDYWGQGTLVTVSS
VL: DIVMTQSPSTLSASVGDRVTITCRASQSISSWLAWYQQAPGKAPKLLIYEASKLQSGVPSRFSATGSGTEFTLTIASLQPEDFAIYYCQHYEAYPFSFGPGTKLDVK
B7: Group 65 representative clone F083-366, Fab-cp3-type antibody (Fab, V domains shown)
VH: QVQLVQSGSEVKKPGSSVKVSCKASRGIFSSYAISWVRQAPGQGLEWMGAVIPMFGTLKYAENFQGRITISADKSMSAAYMELSSLRSEDTAVYYCARNYYGSGTYFNDAFDIWGQGTMVTVSS
VL: QSVLTQPPSGSGAPGQRVTISCTGGNSNIGAGYDVNGYQQLPGKAPKLLIYGNNNRPSGVPDRFSGSKSGTSASLAITGLQVEDEAHYYCQSYDNGLSGSVFGGGTQLTVLG
B8: Group 48 representative clone F083-389, Fab-cp3-type antibody (Fab, V domains shown)
VH: QVQLVQSGAEVKKPGSSVKVSCKASGDIFNKFAITWVRQAPGQGLEWMGGITALFATTSYAQKFQDRVTINWDESTTTAFMELSSLRFEDTAVYYCARGPNYYETYLDNWGQGTLVTVSS
VL: EIVLTQSPTILSASVGDRVTITCRASQSISKWLAWYQQKPGKVPKLLIYMASTLESGVPSRFSGSGSGSEFTLTISSLQPGDFATYYCQQYNSYPRTFGQGTKVEINV
B9: Group 47 representative clone F083-308, Fab-cp3-type antibody (Fab, V domains shown)
VH: QVQLVQSGAEVKKPGSSVKVSCKASGGIFRSHAISWVRQAPGQGLEWMGGIIAIFGTTHYAQQFQGRVTITADESTSTVYMELSTLRSEDTAVYYCARGPNYFESYFDNWGQGTLVTVSS
VL: EIVLTQSPATLSLSPGERATLSCRASQTISSYLAWYQQKPGQAPRLLIYGASNRATGIPARFSGSGSGTDFTLTINSLEPEDFAVYYCQQRSSWPPITFGQGTRLEIK
B10: Group 43 representative clone F081-007, Fab-cp3-type antibody (Fab, V domains shown)
VH: QVQLQQSGAEVKKPGSSVKVSCKASGGIFRKNAISWVRQAPGQGLEWMGGISAIFGTANYAQKFQGRVTITADESSNTVYMDLSRLRSEDTAIYYCASHPTYHFDKSGYRFDSWGQGTLVTVSS
VL: QSVLTQPPSVSAAPGQKVTISCSGSSSNIGNNYVSWYQQLPGTAPKLLIYDNNKRPSGIPDRFSGSKSGTSATLGITGLQTGDEADYYCGTWDSSLSAGVFGGGTKLTVLG
B11: Group 1 representative clone F080-227, Fab-cp3-type antibody (Fab, V domains shown)
VH: QVQLQESGAEVKKPGSSVKVSCKASGGIFRRNAISWVRQAPGQGLEWMGGIIAIFGTANYAQKFQGRVTITADESTSTVYMELSSLRPEDTAVYYCARGPNYYENFFDYWGQGTLVTVSS
VL: DIVMTQSPSSLSASVGDRLDLTCRASQDIANSLAWYKQRPGKAPELLVFGASRLEGGVPSRFSGTRAGTDFTLTISSLQPEDLGTYFCQQYFSFPRTFGQGTTLDLR
B12: Group 2 representative clone F082-220, Fab-cp3-type antibody (Fab, V domains shown)
VH: B9 VH with H32N, I34V, T58P, H59K, Q63K, T85G, S88Y, F103Y, N109Y
VL: DIVMTQSPPSLSASVGDRVTITCRASQGISNYLAWYQQKPGKAPKLLIFGASTLHSGVSSRFSGSGSGPDFTLTISSLQPEDAATYYCQKYHSAPLTFGGGTKVEMK
B13: Group 36 representative clone F082-243, Fab-cp3-type antibody (Fab, V domains shown)
VH: B11 VH with E6Q, R31K, E74D, S77N, S84T, P88Y, F106Y, Y109F
VL: EIVLTQSPSSLSASLRDTVTITCRTSQAITNYLAWYQQRPGKAPKLLIYAASVLQSGVPSRFSGSGSGTDFTLTISSLQPEDFATYYCQKYDSAPYTFGQGTKLEIK
B14: Group 35 representative clone F082-117, Fab-cp3-type antibody (Fab, V domains shown)
VH: QVQLVQSGSEVKKPGSSVKVSCKSSGGILRRSAISWVRQAPGQGLEWMGGILAIFGTTKYAQKFQGRITITADESTNTVHMELSSLRPDDTAVYYCAGGPHYYVSYFDSWGQGTLVTVSS
VL: DIQMTQSPATLSLSPGERATLSCRASQSVRSYLAWYQQKPGQAPRLLIYDASNRATGIPARFSGSGSGTEFTLTISRLEPEDFAVYYCQQRSNWLFTFGPGTKVDFK
B15: Group 52 representative clone F083-328, Fab-cp3-type antibody (Fab, V domains shown)
VH: QVQLVQSGAEVKKPGSSVKLSCKASGGTLRSYALSWVRQAPGEGLEWMGGISAIFNTATYAQNVQGRVTITADESTNTFYLEVSSLRSDDTAVYYCATSGTYYVSFFDYWGQGTLVTVSS
VL: DIVLTQSPSTLSASVGDRVTLTCRASQSIGSLMAWYQQQPGKPPKLLIYRASNLETGVPSRFTGSGSGTEFALTISSLQPDDVGTYYCQHFKTFSRTFGQGTKVEIK
B16: Group 3 representative clone F081-281, Fab-cp3-type antibody (Fab, V domains shown)
VH: QVQLVQSGSEVKKPGSSVKVSCSFKASGGIISKYAITWVRQAPGQGLEWMGGIIAIFGSTNYAQKFQGRLTITSDESTSTAYMELSSLTSEDTAVYYCGRGPHYYESHLDYWGQGTLVTVSS
VL: EIVLTQSPGTLSLSPGERATLSCRASQGMSSSFLAWYQQKPGQPPRLLISGASTRATGIPDRFSGSGSGTDFTLTINRLEPEDFAVYYCQQYGSSPRTFGQGTKVEIK
B17: Group 38 representative clone F082-338, Fab-cp3-type antibody (Fab, V domains shown)
VH: QVQLQESGAEVKKPGSSVKVSCKASGGPFRSHAISWVRQAAGQGLEWMGGITAVFGTANYAQKFQGRVTITADESTNIVSMELSSLRSEDTAIYYCARSLGYHTQYNGMDVWGQGTTVTVSS
VL: DVVMTQSPSSVSASVGDRVTITCRASQGISSWLAWYQQKPGKAPKLLIYAASSLQSGVPSRFSGSGSGTDFTLTISSLQPEDFATYYCQQANSFPITFGQGTRLEIK

Assays:
Assay in all cases: ELISA on coated viral particles
[1] = target: Influenza virus A/New Caledonia/20/1999 (H1N1) (Influenza A virus A/New Caledonia/20/1999 (H1N1))
[2] = target: Influenza virus A/Panama/2007/1999 (H3N2) (Influenza A virus A/Panama/2007/1999 (H3N2))
[3] = target: Influenza virus A/Brisbane/59/2007 (H1N1) (Influenza A virus A/Brisbane/59/2007 (H1N1))
[4] = target: Influenza virus A/California/7/2009pdm (H1N1pdm) (Influenza A virus A/California/7/2009pdm (H1N1pdm))

| Binder | Binding activity (absorbance at 492 nm) [1] | Binding activity (absorbance at 492 nm) [2] | Binding activity (absorbance at 492 nm) [3] | Binding activity (absorbance at 492 nm) [4] |
| --- | --- | --- | --- | --- |
| B1 | 2.59 | 0.15 | 2.64 | 1.82 |
| B2 | 1.61 | 0.15 | 1.89 | 1.56 |
| B3 | 3.25 | 0.17 | 2.89 | 0.43 |
| B4 | 1.94 | 0.13 | 1.95 | 2.62 |
| B5 | 3.05 | 0.16 | 3.01 | 2.54 |
| B6 | 1.34 | 0.16 | 1.44 | 0.46 |
| B7 | 2.93 | 0.18 | 2.84 | 1.13 |
| B8 | 2.72 | 0.14 | 2.83 | 2.49 |
| B9 | 1.79 | 0.16 | 1.82 | 1.21 |
| B10 | 2.84 | 0.14 | 2.72 | 2.33 |
| B11 | 3.15 | 0.14 | 3.1 | 2.95 |
| B12 | 3.37 | 0.16 | 3.15 | 2.72 |
| B13 | 0.96 | 0.13 | 1.05 | 0.8 |
| B14 | 3.35 | 0.15 | 3.26 | 3.11 |
| B15 | 2.66 | 0.22 | 2.43 | 2.02 |
| B16 | 2.86 | 0.18 | 2.98 | 2.87 |
| B17 | 3.01 | 0.13 | 2.93 | 2.82 |

— patent US20160200799A1
